Blank lines part the entries; values can stand above or below the binder they belong to.
How the values were obtained:
[1] = biological target: T1, human BLyS (full length, arginine to histidine at position 132) on CHO-K1 cells (human, UniProt Q9Y275 1-285); assay: flow cytometry, CHO-K1 hBLyS cells, antibody 0.107 nM
T1 construct: also called hBLyS; CHO-K1 hBLyS
Method: (§1) The medium was aspirated completely, and the cells were rinsed once with PBS buffer (purchased from Invitrogen) and then treated with cell dispersion solution (TrypLE™ Express Enzyme, purchased from Life technology) and collected. The detailed steps are as follows: the cells were rinsed once with PBS buffer, after counting, the cells were diluted to 2×10⁶ cells/ml with PBS buffer, blocked with 2% (w/w) fetal bovine serum and incubated on ice for 30 minutes. 200 μL of which per well was aliquoted into a 96-well FACS plate and centrifuged at 2000 rpm at 4° C., then each 100 μL of the lead antibodies obtained from Embodiment 1 and 2 were aliquoted into each well and incubated on ice for 1 hour. […] After centrifuged and rinsed 3 times with FACS buffer, cells were suspended with 200 μL of FACS buffer and the results were detected and analyzed by FACS (FACS Calibur, purchased from BD). It was shown in Tables 12-13 that the lead antibody could bind to human BLyS protein on the cell surface and the lead antibody could cross-react with cynomolgus BLyS. The data in the table is MFI, the average fluorescence intensity of the cell population.

mouse BLyS protein = mouse BLyS protein (mouse, UniProt Q9WU72 69-309); assay: cell-based or functional assay
[2] = biological target: T2, cynomolgus BLyS (full length, arginine to histidine at position 132) on CHO-K1 cells (cynomolgus, UniProt Q9Y275 1-285 (human entry)); assay: flow cytometry, CHO-K1 cynoBLyS cells, antibody 0.0213 nM
T2 construct: also called cyno BLyS; CHO-K1 cynoBLyS
T2 chain: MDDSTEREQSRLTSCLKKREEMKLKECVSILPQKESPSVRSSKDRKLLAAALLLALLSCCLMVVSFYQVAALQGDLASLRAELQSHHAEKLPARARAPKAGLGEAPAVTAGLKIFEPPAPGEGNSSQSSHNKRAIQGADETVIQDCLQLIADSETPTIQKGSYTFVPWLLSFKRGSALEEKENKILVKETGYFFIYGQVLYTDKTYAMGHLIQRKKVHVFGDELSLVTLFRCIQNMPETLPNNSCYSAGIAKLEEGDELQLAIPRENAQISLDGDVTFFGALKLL
Method: as §1

[3] = biological target: T2, cynomolgus BLyS (full length, arginine …); assay: flow cytometry, CHO-K1 cynoBLyS cells, antibody 0.534 nM
Method: as §1

[4] = biological target: T1, human BLyS (full length, arginine to …); assay: flow cytometry, CHO-K1 hBLyS cells, antibody 0.0213 nM
Method: as §1

[5] = biological target: T2, cynomolgus BLyS (full length, arginine …); assay: flow cytometry, CHO-K1 cynoBLyS cells, antibody 0.00427 nM
Method: as §1

[6] = biological target: T2, cynomolgus BLyS (full length, arginine …); assay: flow cytometry, CHO-K1 cynoBLyS cells, antibody 0.107 nM
Method: as §1

[7] = biological target: T1, human BLyS (full length, arginine to …); assay: flow cytometry, CHO-K1 hBLyS cells, antibody 0.00427 nM
Method: as §1

[8] = biological target: T2, cynomolgus BLyS (full length, arginine …); assay: flow cytometry, CHO-K1 cynoBLyS cells, antibody 2.67 nM
Method: as §1

[9] = biological target: T1, human BLyS (full length, arginine to …); assay: flow cytometry, CHO-K1 hBLyS cells, antibody 66.7 nM
Method: as §1

[10] = biological target: T2, cynomolgus BLyS (full length, arginine …); assay: flow cytometry, CHO-K1 cynoBLyS cells, antibody 0 nM
Method: as §1

[11] = biological target: T2, cynomolgus BLyS (full length, arginine …); assay: flow cytometry, CHO-K1 cynoBLyS cells, antibody 13.3 nM
Method: as §1

[12] = biological target: T2, cynomolgus BLyS (full length, arginine …); assay: flow cytometry, CHO-K1 cynoBLyS cells, antibody 66.7 nM
Method: as §1

[13] = biological target: T1, human BLyS (full length, arginine to …); assay: flow cytometry, CHO-K1 hBLyS cells, antibody 13.3 nM
Method: as §1

[14] = biological target: T1, human BLyS (full length, arginine to …); assay: flow cytometry, CHO-K1 hBLyS cells, antibody 0 nM
Method: as §1

[15] = biological target: T1, human BLyS (full length, arginine to …); assay: flow cytometry, CHO-K1 hBLyS cells, antibody 0.534 nM
Method: as §1

[16] = biological target: T1, human BLyS (full length, arginine to …); assay: flow cytometry, CHO-K1 hBLyS cells, antibody 2.67 nM
Method: as §1

[17] = biological target: hBLyS-ECD (His-tagged extracellular domain of human BLyS protein, Ala134-Leu285) (human, UniProt Q9Y275 134-285); assay: cell-based or functional assay

mouse BLyS protein, sequence (Q9WU72 69-309): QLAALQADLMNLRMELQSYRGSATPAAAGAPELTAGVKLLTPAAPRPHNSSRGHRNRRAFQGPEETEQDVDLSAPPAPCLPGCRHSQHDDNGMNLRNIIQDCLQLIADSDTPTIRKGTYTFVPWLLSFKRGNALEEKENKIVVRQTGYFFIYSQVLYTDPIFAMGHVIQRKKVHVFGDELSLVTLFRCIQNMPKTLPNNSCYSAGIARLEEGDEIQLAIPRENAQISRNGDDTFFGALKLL
T1 sequence (Q9Y275 whole entry R130H): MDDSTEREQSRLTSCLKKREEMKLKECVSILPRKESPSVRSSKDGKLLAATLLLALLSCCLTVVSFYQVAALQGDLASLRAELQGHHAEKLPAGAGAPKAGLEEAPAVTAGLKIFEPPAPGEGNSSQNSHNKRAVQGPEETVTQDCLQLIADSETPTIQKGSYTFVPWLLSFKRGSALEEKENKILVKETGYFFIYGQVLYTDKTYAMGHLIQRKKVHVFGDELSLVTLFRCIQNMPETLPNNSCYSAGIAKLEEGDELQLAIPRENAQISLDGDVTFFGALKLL

MFI [1]: 60 MFI
mouse B lymphocyte proliferation (OD450 nm), antibody 0 nM (mouse BLyS protein): 2120 OD450 nm
mouse B lymphocyte proliferation (OD450 nm), antibody 0.000256 nM (mouse BLyS protein): 2390 OD450 nm
mouse B lymphocyte proliferation (OD450 nm), antibody 0.00128 nM (mouse BLyS protein): 2200 OD450 nm
mouse B lymphocyte proliferation (OD450 nm), antibody 0.0064 nM (mouse BLyS protein): 2110 OD450 nm
mouse B lymphocyte proliferation (OD450 nm), antibody 0.032 nM (mouse BLyS protein): 2260 OD450 nm
mouse B lymphocyte proliferation (OD450 nm), antibody 0.16 nM (mouse BLyS protein): 2330 OD450 nm
mouse B lymphocyte proliferation (OD450 nm), antibody 0.8 nM (mouse BLyS protein): 2490 OD450 nm
mouse B lymphocyte proliferation (OD450 nm), antibody 4 nM (mouse BLyS protein): 2410 OD450 nm
mouse B lymphocyte proliferation (OD450 nm), antibody 20 nM (mouse BLyS protein): 2240 OD450 nm
mouse B lymphocyte proliferation (OD450 nm), antibody 100 nM (mouse BLyS protein): 2070 OD450 nm
MFI [2]: 35.3 MFI
MFI [3]: 213 MFI
MFI [4]: 37.1 MFI
MFI [5]: 24.7 MFI
MFI [6]: 76.6 MFI
MFI [7]: 33.2 MFI
MFI [8]: 518 MFI
MFI [9]: 432 MFI
MFI [10]: 20.3 MFI
MFI [11]: 738 MFI
MFI [12]: 842 MFI
MFI [13]: 371 MFI
MFI [14]: 31.2 MFI
MFI [15]: 129 MFI
MFI [16]: 279 MFI
B1: 67A2E1D10 (antibody, V domains shown)
VH: EVQLQQSGAELVKPGASVKLSCTASGFNIKNYYMHWVKQRTEEGLEWIGRIDPEDGETKYAPKFQAKATITADTSSNTAYLQLSSLTSEDTAVYFCARKGYYGNYGAWFAYWGQGTLVTVSA
VL: DIQMTQSPASLSVSVGETVTITCRASEDLYSNLAWYQQKQGKSPQLLVYAATFLADGVPSRFSGSGSGTQYSLKINSLQSEDFGNYYCQHFWGTPPTFGGGTKLEIK
notes: Mouse hybridoma monoclonal antibody purified on Protein G

MFI [1]: 92.1 MFI
mouse B lymphocyte proliferation (OD450 nm), antibody 0 nM [17]: 3440 OD450 nm
mouse B lymphocyte proliferation (OD450 nm), antibody 0.000256 nM [17]: 3120 OD450 nm
mouse B lymphocyte proliferation (OD450 nm), antibody 0.00128 nM [17]: 3700 OD450 nm
mouse B lymphocyte proliferation (OD450 nm), antibody 0.0064 nM [17]: 3700 OD450 nm
mouse B lymphocyte proliferation (OD450 nm), antibody 0.032 nM [17]: 3360 OD450 nm
mouse B lymphocyte proliferation (OD450 nm), antibody 0.16 nM [17]: 3270 OD450 nm
mouse B lymphocyte proliferation (OD450 nm), antibody 0.8 nM [17]: 530 OD450 nm
mouse B lymphocyte proliferation (OD450 nm), antibody 4 nM [17]: 431 OD450 nm
mouse B lymphocyte proliferation (OD450 nm), antibody 20 nM [17]: 433 OD450 nm
mouse B lymphocyte proliferation (OD450 nm), antibody 100 nM [17]: 414 OD450 nm
mouse B lymphocyte proliferation (OD450 nm), antibody 0 nM (mouse BLyS protein): 2090 OD450 nm
mouse B lymphocyte proliferation (OD450 nm), antibody 0.000256 nM (mouse BLyS protein): 2170 OD450 nm
mouse B lymphocyte proliferation (OD450 nm), antibody 0.00128 nM (mouse BLyS protein): 2270 OD450 nm
mouse B lymphocyte proliferation (OD450 nm), antibody 0.0064 nM (mouse BLyS protein): 2170 OD450 nm
mouse B lymphocyte proliferation (OD450 nm), antibody 0.032 nM (mouse BLyS protein): 2390 OD450 nm
mouse B lymphocyte proliferation (OD450 nm), antibody 0.16 nM (mouse BLyS protein): 2370 OD450 nm
mouse B lymphocyte proliferation (OD450 nm), antibody 0.8 nM (mouse BLyS protein): 2640 OD450 nm
mouse B lymphocyte proliferation (OD450 nm), antibody 4 nM (mouse BLyS protein): 2480 OD450 nm
mouse B lymphocyte proliferation (OD450 nm), antibody 20 nM (mouse BLyS protein): 2640 OD450 nm
mouse B lymphocyte proliferation (OD450 nm), antibody 100 nM (mouse BLyS protein): 2480 OD450 nm
MFI [2]: 53.6 MFI
MFI [3]: 355 MFI
MFI [4]: 48.1 MFI
MFI [5]: 32.1 MFI
MFI [6]: 125 MFI
MFI [7]: 37 MFI
MFI [8]: 726 MFI
MFI [9]: 431 MFI
MFI [10]: 21.2 MFI
MFI [11]: 829 MFI
MFI [12]: 884 MFI
MFI [13]: 406 MFI
MFI [14]: 31 MFI
MFI [15]: 192 MFI
MFI [16]: 374 MFI
B2: 89A2G5E7 (antibody, V domains shown)
VH: QVQLKESGPGLVAPSQSLSITCTVSGLSLNSHDISWIRQPPGKGLEWLGVIWSGGGTKYNSAFMSRLSISKDNSKSQVFLKMNSLHTDDTAIYYCVRTPSMITYSAMDYWGQGTSVTVSS
VL: EIVLTQSPALMAASPGEKVTITCSVSSSISSRNLHWYQQKSQTSPKAWIHATSNLASGVPVRFSGSGSGTSYSLTISSMEAEDAATYYCQQWSSYPLTFGSGTKLEIK
notes: as for B1

MFI [1]: 132 MFI
mouse B lymphocyte proliferation (OD450 nm), antibody 0 nM (mouse BLyS protein): 1990 OD450 nm
mouse B lymphocyte proliferation (OD450 nm), antibody 0.000256 nM (mouse BLyS protein): 2210 OD450 nm
mouse B lymphocyte proliferation (OD450 nm), antibody 0.00128 nM (mouse BLyS protein): 2380 OD450 nm
mouse B lymphocyte proliferation (OD450 nm), antibody 0.0064 nM (mouse BLyS protein): 2240 OD450 nm
mouse B lymphocyte proliferation (OD450 nm), antibody 0.032 nM (mouse BLyS protein): 2390 OD450 nm
mouse B lymphocyte proliferation (OD450 nm), antibody 0.16 nM (mouse BLyS protein): 2410 OD450 nm
mouse B lymphocyte proliferation (OD450 nm), antibody 0.8 nM (mouse BLyS protein): 2510 OD450 nm
mouse B lymphocyte proliferation (OD450 nm), antibody 4 nM (mouse BLyS protein): 2340 OD450 nm
mouse B lymphocyte proliferation (OD450 nm), antibody 20 nM (mouse BLyS protein): 2470 OD450 nm
mouse B lymphocyte proliferation (OD450 nm), antibody 100 nM (mouse BLyS protein): 2480 OD450 nm
MFI [2]: 106 MFI
MFI [3]: 480 MFI
MFI [4]: 61.3 MFI
MFI [5]: 37.7 MFI
MFI [6]: 235 MFI
MFI [7]: 39.5 MFI
MFI [8]: 594 MFI
MFI [9]: 356 MFI
MFI [10]: 20.2 MFI
MFI [11]: 636 MFI
MFI [12]: 664 MFI
MFI [13]: 336 MFI
MFI [14]: 31.2 MFI
MFI [15]: 249 MFI
MFI [16]: 300 MFI
B3: 78C11D2D12 (antibody, V domains shown)
VH: QVQLQQSGAELVRPGTSVKISCKASGYAFTNYWLGWVKQRPGHGLEWIGDIYPGSGNTYYNEKFKGKATLTADKSSSTAYMQLSSLTSEDSAVFFCAAYLYAMDYWGQGTSVTVSS
VL: QIVLTQSPAIMSASPGEKVTITCSASSSVSYMHWFQQKPGTSPKLWIYSASNLASGVPARFSGSGSGTSYSLTISRMEAEDAATYYCQQRGSYPFTFGSGTKLEIK
notes: as for B1

— patent publication US20210347873A1 (SHANGHAI PHARMAEXPLORER, published 2021)
